The values that follow are results of earlier work, collected in patent publication US20260265800A1, “NEW FUCOSYLTRANSFERASES FOR IN VIVO SYNTHESIS OF LNFP-III” (DSM IP Assets B.V., priority 2022, published 2026).

B1: PmglB_54UTR: promoter sequence, SEQ ID NO: 18 (nucleic acid)
DNA: TGCGTCGCCATTCTGTCGCAACACGCCAGAATGCGGCGGCGATCACTAACTCAACAAATCAGGCGATGTAACCGCTTTCAATCTGTGAGTGATTTCACAGTATCTTAACAATGTGATAGCTATGATTGCACCGTGCCTACAAGCATCGTGGAGGTCCGTGACTTTCACGCATACAACAAACATTAACAAAAACCGGAGATACC
B2: PmglB_16UTR: promoter sequence, SEQ ID NO: 32 (nucleic acid)
DNA: TGCGTCGCCATTCTGTCGCAACACGCCAGAATGCGGCGGCGATCACTAACTCAACAAATCAGGCGATGTAACCGCTTTCAATCTGTGAGTGATTTCACAGTATCTTAACAATGTGATAGCTATGATTGCACCGTTTTAACGTTGTAACCCGTATGTAACAGTGAATAATCACTTTTGCCGAGGTAACAGCGTCATAACAACAATTAAAGCCGTTTTCTGGAGCGTTACCGGGCATGGAAGAACGAATTTTAAAAAGTGAGCTTCGGCGTTCAGTAACACTTCATTAACTCTACTGCCCCGCCGAGCATTTATCTCAAGCACTACCCTGCATAAGCAAGGAGGAAACAGCT
B3: PglpA_16UTR: promoter sequence, SEQ ID NO: 36 (nucleic acid)
DNA: GAAAACATTCATAAATTAAATGTGAATTGCCGCACACATTATTAAATAAGATTTACAAAATGTTCAAAATGACGCATGAAATCACGTTTCACTTTCGAATTATGAGCGAATATGCGCGATGCCTACAAGCATCGTGGAGGTCCGTGACTTTCACGCATACAACAAACATTAACCAAGGAGGAAACAGCT
B4: PmglB_70UTR_SD8: promoter sequence, SEQ ID NO: 16 (nucleic acid)
DNA: TGCGTCGCCATTCTGTCGCAACACGCCAGAATGCGGCGGCGATCACTAACTCAACAAATCAGGCGATGTAACCGCTTTCAATCTGTGAGTGATTTCACAGTATCTTAACAATGTGATAGCTATGATTGCACCGTGCCTACAAGCATCGTGGAGGTCCGTGACTTTCACGCATACAACAAACATTAACCAAGAGAAAAACAGCT
B5: PmglB_70UTR_SD10: promoter sequence, SEQ ID NO: 17 (nucleic acid)
DNA: B4 DNA with G191C, A192T, A195G
B6: Plac_70UTR: promoter sequence, SEQ ID NO: 19 (nucleic acid)
DNA: TGTGAGTTAGCTCACTCATTAGGCACCCCAGGCTTTACACTTTATGCTTCCGGCTCGTATGTTGTGTGGAATGCCTACAAGCATCGTGGAGGTCCGTGACTTTCACGCATACAACAAACATTAACCAAGGAGGAAACAGCT
B7: PglpF_SD7: promoter sequence, SEQ ID NO: 34 (nucleic acid)
DNA: GCGGCACGCCTTGCAGATTACGGTTTGCCACACTTTTCATCCTTCTCCTGGTGACATAATCCACATCAATCGAAAATGTTAATAAATTTGTTGCGCGAATGATCTAACAAACATGCATCATGTACAATCAGATGGAATAAATGGCGCGATAACGCTCATTTTATGACGAGGCACACACATTTTAAGTTCGATATTTCTCGTTTTTGCTCGTTAACGATAAGTTTACAGCATGCCTACAAGCATCGTGGAGGTCCGTGACTTTCACGCATACAACAAACATTAACCAAGAGCAAAACAGCT
B8: PglpF_SD3: promoter sequence, SEQ ID NO: 38 (nucleic acid)
DNA: B7 DNA with G290A
B9: PglpF_SD1: promoter sequence, SEQ ID NO: 39 (nucleic acid)
DNA: B7 DNA with G288A, A289T, G290T, A292G
B10: PglpF_SD8: promoter sequence, SEQ ID NO: 31 (nucleic acid)
DNA: ATGCGCAAATGCGGCACGCCTTGCAGATTACGGTTTGCCACACTTTTCATCCTTCTCCTGGTGACATAATCCACATCAATCGAAAATGTTAATAAATTTGTTGCGCGAATGATCTAACAAACATGCATCATGTACAATCAGATGGAATAAATGGCGCGATAACGCTCATTTTATGACGAGGCACACACATTTTAAGTTCGATATTTCTCGTTTTTGCTCGTTAACGATAAGTTTACAGCATGCCTACAAGCATCGTGGAGGTCCGTGACTTTCACGCATACAACAAACATTAACCAAGAGAAAAACAGCT
B11: PglpF_SD6: promoter sequence, SEQ ID NO: 35 (nucleic acid)
DNA: B10 DNA with A301C, A302T
B12: PglpF_SD9: promoter sequence, SEQ ID NO: 33 (nucleic acid)
DNA: B10 DNA with G298A, A299G

Residue numbers refer to the chain shown, from its start.

In the first series the test system is β-galactosidase activity. The following applies: LacZ assay, PglpF as positive reference; a range indicates results from multiple assays; cited from earlier work.
Regarding B1, the “% Activity relative to PglpF” value is on record as 197%.

Take B2: the “% Activity relative to PglpF” value is 78-171%.

Consider B3, for which the “% Activity relative to PglpF” value is reported as 38-64%.

As to B4, the “% Activity relative to PglpF” value is given as 291%.

With B5, the “% Activity relative to PglpF” value is 233-281%.

For the molecule B6, the “% Activity relative to PglpF” value is listed as 182-220%.

B7: the “% Activity relative to PglpF” value is listed as 47-57%.

For the molecule B8, the “% Activity relative to PglpF” value is reported as 9%.

For B9, the “% Activity relative to PglpF” value is given as 5%.

Take B10: the “% Activity relative to PglpF” value was 81-82%.

For B11, the “% Activity relative to PglpF” value was 46-47%.

Take B12: the “% Activity relative to PglpF” value is reported as 73-93%.

Staying with this series, now noted: LacZ assay; cited from earlier work.
Turning to B1, the Strength result was “high (A regulatory element with an activity above 10,000 MU is considered strong)”.

Consider B2, for which the Strength entry is on record as “high (A regulatory element with an activity above 10,000 MU is considered strong)”.

Regarding B3, the Strength result is reported as “middle (what is in between has intermediate strength)”.

For B4, the Strength entry is reported as “high (A regulatory element with an activity above 10,000 MU is considered strong)”.

Regarding B5, the Strength result was “high (A regulatory element with an activity above 10,000 MU is considered strong)”.

Regarding B6, the Strength result is reported as “high (A regulatory element with an activity above 10,000 MU is considered strong)”.

B7: the Strength result is recorded as “middle (what is in between has intermediate strength)”.

Regarding B8, the Strength result was “low (a regulatory element with an activity below 3,000 MU is considered weak)”.

B9: the Strength result is given as “low (a regulatory element with an activity below 3,000 MU is considered weak)”.

On to B10, for which the Strength result is “high (A regulatory element with an activity above 10,000 MU is considered strong)”.

Regarding B11, the Strength entry was “middle (what is in between has intermediate strength)”.

With B12, the Strength result was “middle (what is in between has intermediate strength)”.
